According to patent US20160185832A1 (University of Pennsylvania, published 2016):

Columns and labels:
[1] = target: T1, pure, pre-polymerized, taxol-stabilized microtubules of bovine tubulin (Cytoskeleton) (bovine, UniProt P81947 1-451; Q6B856 1-445, limits assumed); assay: microtubule co-sedimentation, 1 nM purified 6×His truncation M with increasing microtubules, Coomassie gel, non-linear regression
T1 construct: Polymer of alpha/beta tubulin dimers, polymerized with GTP and stabilized with 10 µM taxol; also called MT; MTs
T1 sequence (P81947 whole entry, chain 1 of 2, the tested form may be a part): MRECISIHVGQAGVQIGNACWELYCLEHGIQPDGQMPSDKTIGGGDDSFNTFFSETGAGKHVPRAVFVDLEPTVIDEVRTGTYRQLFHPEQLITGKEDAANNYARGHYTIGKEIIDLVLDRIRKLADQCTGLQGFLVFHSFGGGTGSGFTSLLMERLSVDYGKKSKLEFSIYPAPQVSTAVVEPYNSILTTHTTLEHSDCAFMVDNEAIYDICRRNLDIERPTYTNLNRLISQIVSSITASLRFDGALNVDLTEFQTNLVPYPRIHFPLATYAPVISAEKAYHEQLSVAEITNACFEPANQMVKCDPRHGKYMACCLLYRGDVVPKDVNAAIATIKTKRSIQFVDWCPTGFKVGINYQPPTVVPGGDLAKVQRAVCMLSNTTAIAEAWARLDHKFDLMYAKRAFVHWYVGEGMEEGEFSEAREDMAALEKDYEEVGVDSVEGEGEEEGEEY
T1 sequence (Q6B856 whole entry, chain 2 of 2, the tested form may be a part): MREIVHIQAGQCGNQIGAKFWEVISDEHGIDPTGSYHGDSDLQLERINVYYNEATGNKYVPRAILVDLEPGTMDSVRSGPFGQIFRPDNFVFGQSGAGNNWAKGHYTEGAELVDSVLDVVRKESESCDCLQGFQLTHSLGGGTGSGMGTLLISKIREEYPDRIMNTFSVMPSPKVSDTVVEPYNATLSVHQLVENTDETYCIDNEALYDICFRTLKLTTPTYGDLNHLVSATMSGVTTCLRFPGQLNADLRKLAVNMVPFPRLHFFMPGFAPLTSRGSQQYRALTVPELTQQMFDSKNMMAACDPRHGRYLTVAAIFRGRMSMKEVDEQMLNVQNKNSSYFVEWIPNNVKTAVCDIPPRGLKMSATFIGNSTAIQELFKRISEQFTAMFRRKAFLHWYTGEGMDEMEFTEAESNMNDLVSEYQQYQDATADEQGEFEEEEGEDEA
Procedure: For the direct microtubule binding assay, 1 nM of recombinantly expressed and purified 6×His tagged CEP290 truncation M was incubated at 30° C. for 30 minutes with increasing amounts of pure, prepolymerized microtubules. Reactions were centrifuged and subjected to SDS-PAGE as above, and tubulin and CEP290 truncation M were detected by Coomassie blue staining.

[2] = target: T1, pure, pre-polymerized, taxol-stabilized …; assay: in vitro microtubule co-sedimentation of in vitro translated GFP fusions, western blot
Procedure: Crude TNT T7 reaction products were diluted 1:1 in BRB80 supplemented with 1 mM GTP and 10 μM taxol. The diluted products were then incubated at 30° C. for 30 minutes in either the presence or absence of pure, pre-polymerized microtubules. Reactions were then centrifuged through a 40% sucrose cushion at 48,000×g for 30 minutes, the supernatant was collected, and the pellet washed once with warm BRB80 and resuspended in 1×SDS PAGE sample buffer. Both fractions were subjected to SDS-PAGE and transferred to nitrocellulose. The presence of tubulin in the pellets was confirmed by Ponceau staining, and GFP-tagged CEP290 constructs were detected by immunoblotting.

Binder | Kd [1] [nM] | binding result [2]
6×His tagged CEP290 truncation M (aa 1695-1966), recombinantly expressed and purified (other, Expressed in E. coli BL21(DE3)pLysS, purified on Ni-NTA; also called region M; CEP290 region M; not shown: N-terminal 6×His tag from pDest-527) DQSQKESQCLKSELQAQKEANSRAPTTTMRNLVERLKSQLALKEKQQKALSRALLELRAEMTAAAEERIISATSQKEAHLNVQQIVDRHTRELKTQVEDLNENLLKLKEALKTSKNRENSLTDNLNDLNNELQKKQKAYNKILREKEEIDQENDELKRQIKRLTSGLQGKPLTDNKQSLIEELQRKVKKLENQLEGKVEEVDLKPMKEKNAKEELIRWEEGKKWQAKIEGIRNKLKEKEGEVFTLTKQLNTLKDLFAKADKEKLTLQRKLKT | ~100 | –
GFP-tagged "Deleted" CEP290 truncation (part of the microtubule binding region deleted in the rd16 mouse) (other, not shown: N-terminal GFP tag from pcDNA-DEST53 (Gateway)) DQSQKESQCLKSELQAQKEANSRAPTTTMRNLVERLKSQLALKEKQQKALSRALLELRAEMTAAAEERIISATSQKEAHLNVQQIVDRHTRELKTQVEDLNENLLKLKEALKTSKNRENSLTDNLNDLNNELQKKQKAYNKILREKEEIDQENDELKRQIKRLTSGLQGKPLTDNKQSLIEELQRKVKKLENQLEGKVEEVDLKPMKEK | – | no binding
